Laboratory results: patent US20240270853A1 (Chugai, published 2024)

T1: Recombinant mouse DDR2 ECD-Fc (R&D systems, Cat. No. 7479-DR-050) (mouse, UniProt Q62371 22-399, biotinylated)
T1 construct: Bought protein; not shown: Fc part of the bought fusion protein, not described
T1 sequence: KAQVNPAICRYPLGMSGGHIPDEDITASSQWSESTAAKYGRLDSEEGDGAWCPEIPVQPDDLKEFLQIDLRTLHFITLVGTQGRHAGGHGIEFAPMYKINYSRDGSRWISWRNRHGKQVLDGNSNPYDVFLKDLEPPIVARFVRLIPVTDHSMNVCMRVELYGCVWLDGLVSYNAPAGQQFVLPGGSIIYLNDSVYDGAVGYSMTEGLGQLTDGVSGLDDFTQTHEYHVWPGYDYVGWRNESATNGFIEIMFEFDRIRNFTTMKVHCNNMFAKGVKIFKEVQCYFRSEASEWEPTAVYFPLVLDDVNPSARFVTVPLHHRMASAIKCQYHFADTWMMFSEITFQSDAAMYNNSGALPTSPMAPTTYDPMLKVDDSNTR


Key:
[1] = biological target: T1, Recombinant mouse DDR2 ECD-Fc (R&D …); test: Octet tandem binning on captured mouse DDR2 ECD-Fc; competitor Ab1 (bound first) DAB0069
Experimental: (§1) Competitive epitope binning experiment was performed by real-time binding assay using Octet (Pall ForteBio). Recombinant mouse DDR2 ECD-Fc (R&D systems, Cat. No. 7479-DR-050) was biotinylated and captured onto streptavidin biosensor tips (Pall ForteBio) as antigen. The antigen captured tips were dipped into 15 or 40 microgram (micro g)/mL of a first set of antibodies for 300 seconds. Then the tips were incubated with 15 or 40 micro g/mL of a second set of antibodies for 300 seconds. To eliminate an effect of antibody dissociation, the antibody concentration in the second set was the same with that of the first set. Result was analyzed by DATA Analysis HT software (Pall ForteBio, Version 10.0.1.7).
(§2) In Table 3, “Abl” indicates antibody in the first set and “Ab2” indicates antibody in the second set.

[2] = biological target: T1, Recombinant mouse DDR2 ECD-Fc (R&D …); test: Octet tandem binning on captured mouse DDR2 ECD-Fc; competitor Ab1 (bound first) DAB0048
Experimental: as §1, §2

[3] = biological target: T1, Recombinant mouse DDR2 ECD-Fc (R&D …); test: Octet tandem binning on captured mouse DDR2 ECD-Fc; competitor Ab1 (bound first) DAB0060
Experimental: as §1, §2

[4] = biological target: T1, Recombinant mouse DDR2 ECD-Fc (R&D …); test: Octet tandem binning on captured mouse DDR2 ECD-Fc; competitor Ab1 (bound first) DAB0045
Experimental: as §1, §2

[5] = biological target: T1, Recombinant mouse DDR2 ECD-Fc (R&D …); test: Octet tandem binning on captured mouse DDR2 ECD-Fc; competitor Ab1 (bound first) DAB0094
Experimental: as §1, §2

[6] = biological target: T1, Recombinant mouse DDR2 ECD-Fc (R&D …); test: Octet tandem binning on captured mouse DDR2 ECD-Fc; competitor Ab1 (bound first) DAB0093
Experimental: as §1, §2

[7] = biological target: T1, Recombinant mouse DDR2 ECD-Fc (R&D …); test: Octet tandem binning on captured mouse DDR2 ECD-Fc; competitor Ab1 (bound first) DAB0065
Experimental: as §1, §2

Row | Binder | Octet response of Ab2 [1] | Octet response of Ab2 [2] | Octet response of Ab2 [3] | Octet response of Ab2 [4] | Octet response of Ab2 [5] | Octet response of Ab2 [6] | Octet response of Ab2 [7]
1 | DAB0065 (antibody, V domains shown, Variable regions from immunized rabbits) VH: QSVEESGGRLVTPGTPLTLTCTVSGFSLSTSAMSWVRQAPGKGLEWIGMITYGGSGSTWYASWANGRFTISKTSTTVTLKMTSPTTEDTASYFCARVYGTIGSNFYSIYSFNLWGQGTLVTVSS VL: AAVLTQTPSPVSAAVGGTVSISCQSSKSVYNSNYLSWYQQKPGQPPKLLIYYTSALASGVSSRFKGSGSGTRFTLTISDVQCDDAATYYCAGGYSSSSDNGFGGGTKVEIK | 0.0322 | 1.65 | 1.51 | 0.0398 | 1.55 | 1.66 | 0
2 | DAB0048 (antibody, V domains shown, Variable regions from immunized rabbits) VH: QSVEESGGRLITPGTPLTLTCTASGFSLSIYYMIWVRQAPGKGLEWIGYIWSGSTTDYASWAKGRFTISKTSTTVDLKITSPTTEDTATYFCARVYAGYGYGSDLWGQGTLVTVSS VL: AAVLTQTPSPVSAAVGGTVSISCQSSQSVYNNNWLAWYQQKPGQPPKLLIYSASTLASGVPSRFKGSGSGTQFTLTISDVQCDDAATYYCAGGYSTNSDKNAFGGGTKVEIK | 1.47 | 0 | 1.31 | 1.32 | 1.5 | -0.0129 | 1.49
3 | DAB0094 (antibody, V domains shown, Variable regions from immunized rabbits) VH: QSVEESGGRLVTPGTPLTLTCTVSGFSLSSYSVAWVRQAPGKGLEWIGYISYSGSTYYASWVNGRFTISKTSTTVDLKMTSLTASDTATYFCARDPGYSRDLWGQGTLVTVSS VL: DVVMTQTPSSVSEPVGGTVTIKCQASQSIGSYLSWYQQKPGQPPKLLIYRASTLASGVSSRFKGSGSGTEFTLTINGLECADAAIYYCQSSYVGVSHGSFGGGTKVEIK | 1.3 | 1.42 | 0.0985 | 1.22 | 0 | 1.48 | 1.37
4 | DAB0045 (antibody, V domains shown, Variable regions from immunized rabbits) VH: QSVEESGGRLVTPGTPLTLTCTVSGFSLSSYSMGWVRQAPGKGLEYIGVINTSDSAYYASWAKGRFTISRTSTTVDLKMTSLTTEDTATYFCARAIGYYGSGWGACYFNLWGQGTLVTVSS VL: AIKMTQTPSSVSAAVGGTVTVNCQASEDIKSYLAWYQQKPGQPPKLLIYSASTLASGVSSRFKGSGSGTQFTLTISDLECADAATYYCQSYYGTSTTGEYNAFGGGTKVEIK | -0.001 | 1.2 | 1.09 | 0 | 1.07 | 1.13 | -0.0102
5 | DAB0069 (antibody, V domains shown, Variable regions from immunized rabbits) VH: QSLEESGGRLVTPGTPLTLTCTASGFSLSNYYMQWVRQAPGKGLEWIGIVYPGSSAYYANWAKGRFTISKTSTTVDLKMTSLTTEDTATYFCAGSSNSVYSFNLWGQGTLVTVSS VL: AYDMTQTPSSVSAAVGGTVTIKCQASESIYRSLAWYQQKPGQPPKLLIYSASTLTSGVSSRFKGSGSGTEFTLTISDLECADAGTYYCQQGGSFSNIVNTFGGGTKVEIK | 0 | 1.57 | 1.35 | 0.0335 | – | 1.5 | -0.0058
6 | DAB0060 (antibody, V domains shown, Variable regions from immunized rabbits) VH: QSVEESGGRLVTPGTALTLTCTASGFSLSSYDMSWVRQAPGEGLEWIGTIFTEGSTSCASWVKGRFTISRTSTTVDLKITSPTTEDTATYFCVRGTTSNRLWGQGTLVTVSS VL: DVVMTQTPASVEAVVGATVTIRCQASESITNYLSWYQQKPGQPPKVLIYYASTLESGVPSRFKGSGSGTQFTLTISDLECADAATYYCQSNYFSSSYSYGNTFGGGTKVEIK | 0.615 | 0.82 | 0 | 0.591 | -0.054 | 0.857 | 0.766
